Source: PMC12584684, “A minimal SufB2C2 complex functions as a [4Fe-4S] cluster scaffold in methanogenic archaea” (Microbiology Spectrum, 2025)
One block for each compound: values may come before it.

Columns and labels:
[1] = target: His6-tagged Methanothermococcus thermolithotrophicus SufB (Methanothermococcus thermolithotrophicus); test: SEC; Superdex 200 10/300 GL, 50 mM sodium HEPES, 200 mM NaCl, 5 mM MgCl2, pH 7.5; samples pretreated with 10 mM EDTA and 10 mM DTH overnight; calibrated with standards of 29-700 kDa; fractions on SDS-PAGE
[2] = target: His6-tagged Methanothermococcus thermolithotrophicus SufC (Methanothermococcus thermolithotrophicus)
[3] = target: His6-tagged Methanothermococcus thermolithotrophicus SufC (Methanothermococcus thermolithotrophicus); remark: listed apart in the source
[4] = target: His6-tagged Methanothermococcus thermolithotrophicus SufC (Methanothermococcus thermolithotrophicus); test: SEC; Superdex 200 10/300 GL, 50 mM sodium HEPES, 200 mM NaCl, 5 mM MgCl2, pH 7.5; samples pretreated with 10 mM EDTA and 10 mM DTH overnight; calibrated with standards of 29-700 kDa; fractions on SDS-PAGE
MTH SufB2C2 = system: T1, MTH SufB2C2; test: malachite green Pi release ATPase assay; assay type: biochemical, Methanothermococcus thermolithotrophicus; details: 60°C, pH 7.5, 5 mM MgCl2, 0-2 mM ATP, holo-form, anoxic
T1 construct: gene sufC; N-terminal His6-SufC co-expressed with untagged SufB in E. coli Rosetta 2(DE3); SufB2C2 heterotetramer, ~156 kDa by SEC; with Fe-S cluster assembly protein SufB
Description: malachite green Pi release ATPase assay on MTH SufB2C2 | kinetic parameters (Vmax, Km, kcat, and catalytic efficiency) for holo-forms of MTH SufC and SufB2C2

MTH SufC = system: T2, MTH SufC; test: malachite green Pi release ATPase assay; assay type: biochemical, Methanothermococcus thermolithotrophicus; details: 60°C, pH 7.5, 5 mM MgCl2, 0-2 mM ATP, holo-form, anoxic
T2 construct: pET15b N-terminal His6-tag, E. coli Rosetta 2(DE3), anoxic Ni-NTA; monomer 30 kDa, dimer by SEC
Description: malachite green Pi release ATPase assay on MTH SufC | kinetic parameters (Vmax, Km, kcat, and catalytic efficiency) for holo-forms of MTH SufC and SufB2C2

MMP SufB2C2 = target: T3, MMP SufB2C2 (Methanococcus maripaludis, UniProt Q6LY25); test: iron quantification, UV-visible and EPR spectroscopy, as purified; assay type: binding; details: anoxic purification from native host; EPR at 10 K after 5 mM dithionite
T3 construct: gene MMP1168; sufCB operon, N-terminal Strep-tag on SufC, expressed in M. maripaludis S0001 and purified anoxically; SufB2C2 heterotetramer; with Fe-S cluster assembly protein SufB
T3 sequence (Q6LY25 1-248): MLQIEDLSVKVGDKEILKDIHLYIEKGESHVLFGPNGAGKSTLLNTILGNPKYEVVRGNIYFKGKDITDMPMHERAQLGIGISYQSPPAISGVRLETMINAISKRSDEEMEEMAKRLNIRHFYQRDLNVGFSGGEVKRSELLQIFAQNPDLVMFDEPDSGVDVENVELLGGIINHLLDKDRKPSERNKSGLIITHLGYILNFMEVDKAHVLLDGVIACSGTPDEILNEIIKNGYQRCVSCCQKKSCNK
T3 sequence (Q6LY24 1-418 partner): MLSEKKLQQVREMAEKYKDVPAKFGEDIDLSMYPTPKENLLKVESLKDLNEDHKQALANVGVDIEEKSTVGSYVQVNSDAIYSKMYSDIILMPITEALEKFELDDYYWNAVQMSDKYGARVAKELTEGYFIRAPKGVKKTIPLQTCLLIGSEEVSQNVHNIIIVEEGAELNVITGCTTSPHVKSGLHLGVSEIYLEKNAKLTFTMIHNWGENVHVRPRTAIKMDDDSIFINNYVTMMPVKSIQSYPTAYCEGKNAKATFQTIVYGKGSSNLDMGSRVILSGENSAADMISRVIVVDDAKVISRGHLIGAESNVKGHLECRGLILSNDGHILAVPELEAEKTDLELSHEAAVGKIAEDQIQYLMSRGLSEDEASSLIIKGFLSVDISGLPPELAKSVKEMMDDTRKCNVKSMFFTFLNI

- stoichiometry N [1]: 2
Compound: His6-tagged Methanothermococcus thermolithotrophicus SufB (natural protein)

- ATPase activity (malachite green) of the MTH SufB2C2 complex against MTH SufC alone at 60°C [2]: 7 fold
- activation of apo-AcnB (Fe-S cluster transfer, aconitase activity) by the MTH SufB2C2 complex against MTH SufC alone [3]: 2 fold
Compound: untagged Methanothermococcus thermolithotrophicus SufB (natural protein)

- stoichiometry N [4]: 2
Compound: His6-tagged Methanothermococcus thermolithotrophicus SufC (natural protein)

- Km (MTH SufB2C2): 2600 ± 700 µM
- Km (MTH SufC): 1900 ± 800 µM
Compound: Nc1ncnc2c1ncn2[C@@H]1O[C@H](COP(=O)(O)OP(=O)(O)OP(=O)(O)O)[C@@H](O)[C@H]1O [ATP]

Compound: [S]12[Fe]3[S]4[Fe]1[S]1[Fe]2[S]3[Fe]41 [[4Fe-4S] cluster]
- Fe atoms per protomer (MMP SufB2C2): 1.6 ± 0.3 Fe per protomer
